In data set [1] the test system is Gba1 null/null mouse fibroblasts. The data set can be described thus: Immunofluorescence co-localization of expressed GCase constructs (lysosome vs ER/Golgi). The data set is classed as cell-based. The conditions noted are these: for localization of GCase DSPIIV variants to the lysosome (Lamp1 / LIMP-2 co-localization), in words: transient transfection, FIG. 10A. An excerpt:
Immunofluorescence studies (IF): Mouse Gba1 null/null were used for the host cells for all transfection experiments. pCMV-AC-GFP Mammalian cell expression vector was used for expression of various GCases that included the TKD region (amino acids 407, 408 and 409) or the DSPIIV (SEQ ID NO 15) region (amino acids 399-404). Direct-labeled first antibodies were applied for IF detection; including anti-human GCase, -Calreticulin, -calnexin, -LIMP2, and -Lamp1. Lysotracker and ER tracker (Invitrogen) were also used as indicated. Analyses were done with a Zeiss AxioVert 200M with ApoTome. Co-localization analyses to obtain Pearson Indices were conducted using a module in the Axiovision 4.8 software.
Initial studies to localize the targeting peptide were conducted with GCase-GFP fusion constructs that had COOH-terminal deletions of GCase (FIG. 1). The constructs are designated as GCase-XX or XXX where the Xs represent the number of GCase amino acids deleted from the COOH-terminus. These constructs were transfected into and expressed in Gba1 null/null mouse fibroblasts using the CMV promoter (pCMV-AC-GFP or YFP) Immunofluorescence analyses using anti-human GCase IgG (green) and Lysotracker (Red) were used for colocalization of GCase to the lysosome (Red) or GCase (green) and Calreticulin or Calnexin (Red) for colocalization to the ER or Golgi (FIG. 2). […] Since LIMP-2 is the receptor for targeting of GCase to the lysosome, our working hypothesis was that the peptide sequence for binding of GCase to LIMP-2 was located within amino acids 347-422.

The subject of data set [2] is Gba1−/− fibroblasts. The data set can be described thus: GCase activity in media and cell lysates after transient transfection (secretion and retention). It counts as cell-based, mouse. From the text:
(§1) FIG. 11A-FIG. 11C: Secretion and retention of GCase with alanine variants in the TDK (FIG. 11A) or DSPIIV (SEQ ID NO 15) (FIG. 11B and FIG. 11C) sequences. FIG. 11A depicts activities in the media of Gba1−/− fibroblasts following transient transfections of each of the specified alanine substituted GCases in the TDK region. […] FIG. 11B depicts in the Left Panel: Activities in the media following transient transfections of various DSPIIV (SEQ ID NO 15) alanine substituted GCases and the % of GCase secreted. The latter was calculated as {ng GCase (in media)/[ng GCase (in media)+ng (GCase in lysates)]}×100 (also see Table 2). […] The transfections alone (Null+lipo) had no effect. […] FIG. 11C deicts in cellular lysate GCase activities from the various alanine substituted GCases in the DSPIIV (SEQ ID NO 15) sequence as indicated. […] The doubly alanine substituted GCase had little intracellular activity, i.e., nearly all the GCase was secreted into the media.
(§2) Enzyme Assays: Cell pellets were homogenized in 0.25% Na-taurocholate and 0.25% Triton X-100. GCase activities were determined fluorometrically with 4 mM 4MU-Glc in 0.2M/0.1M citric-phosphate, pH 5.6 (18, 54)

The nature of data set [3]: CRIM specific activity of GCase variants (activity per cross-reacting immunological material). It counts as biochemical. As to conditions: for CRIM specific activity relative to WT (assigned 100%): FIG. 11A, 11B right panels. The protocol:
as §2
Corresponding effects on the secretion of GCases from the cells containing various mutations in DSPIIVDITDK were found by assessing the activity of GCases in the media and cell lysate (FIG. 11 A-C). […] Using this assessment, the ratio of CRIM specific activities relative to WT (assigned 100%) for AAA, TAD, and AKA were 20%, 32%, and 49%, respectively (FIG. 11A, right panel), or that more GCase protein was required from the respective mutants to achieve the same enzyme activity as the WT. […] For the other mutants this ranged from 22-36%. This compares to ˜0% for the WT or D399E GCases Immunoaffinity anti-GCase column purification of the various GCases from media confirmed the excesses of these mutant GCases and the inability to detect WT or D399E GCases in media (data not shown).

Data set [4] concerns Gba1−/− cells. Kind of data set: Proportion of GCase protein in cells and media. The data set is classed as cell-based, mouse. As to conditions: ng GCase in media / (ng in media + ng in lysates) × 100.
Excerpt: as §1

For data set [5], the target named is T1, ldLIMP2 (Homo sapiens, UniProt Q14108).
T1 construct: Purified luminal domain LIMP-2 (1d-LIMP2) was custom made (Sino Biological Inc., PRC.); purchased Sino Biological Inc
T1 sequence (Q14108 28-433 limits assumed): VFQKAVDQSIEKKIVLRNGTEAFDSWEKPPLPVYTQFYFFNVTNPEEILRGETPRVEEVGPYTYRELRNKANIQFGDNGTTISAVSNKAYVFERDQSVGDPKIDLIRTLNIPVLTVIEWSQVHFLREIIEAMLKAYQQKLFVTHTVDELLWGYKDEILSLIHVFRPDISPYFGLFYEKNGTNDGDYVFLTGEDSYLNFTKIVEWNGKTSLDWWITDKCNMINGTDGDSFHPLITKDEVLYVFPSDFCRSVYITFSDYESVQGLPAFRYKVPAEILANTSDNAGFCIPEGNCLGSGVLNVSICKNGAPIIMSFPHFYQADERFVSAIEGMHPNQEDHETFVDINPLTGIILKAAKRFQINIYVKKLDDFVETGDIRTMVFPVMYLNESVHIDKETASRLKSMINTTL
The data set can be described thus: Immunoprecipitation of alanine substituted GCases (TKD sequence) with ldLIMP2. The conditions noted are these: for binding of GCase variant to ldLIMP2, in words: GCase:LIMP2 1:1, immunoblot, FIG. 6. It counts as binding. An excerpt: FIG. 6A-6E: Immunoprecipitation of the alanine substituted GCases in the TKD sequence with ldLIMP2. In panels shown in FIG. 6A to FIG. 6D, the lanes 1 through 6 correspond to the band densities indicated by the bars in FIG. 6E. […] The quantitative results are shown in (FIG. 6E) in which 1, 2, 3, and 4 correspond to WT, AAA, AKA, and AKD, respectively.
Immunoprecipitation of GCases with mutations in the TKD sequence: For immunoblots, Gba1 knockout mouse fibroblasts (null/null) were transfected with the GBA1 constructs (WT or mutants) and expressed for 5 days. The GCases from harvested cell lysates were purified using a GCase antibody affinity column (Dynabeads protein G crosslinked (BS3) with rabbit anti-human GCase antibody). The purified GCases were then mixed with LIMP2 (1:1), incubated (30 min.), and applied to another affinity column (Dynabeads protein G crosslinked (BS3) with rabbit anti-LIMP2 antibody). Aliquots of each step (loading, wash and eluent) were collected and analyzed on 12.5% SDS gels. Immunoblots were developed using anti-human GCase antibody and AP conjugated color development kits. Mock experiments with either non-LIMP2 proteins added or no GCases added, were used as control. The quantitations of these immunoprecipitation data were obtained from densitometry measurements of the gels. The no-LIMP-2 bars are the controls for comparison, since GCase was processed through all steps without LIMP-2 to account for any losses of GCase; About 50% of the GCase was lost during processing.
Background: Immunoblotting shows a protein as a band on a membrane.

B1: D399E: human GCase variant with charge conserved D399E (ESPIIV, SEQ ID NO 20) (protein)
chain: ARPCIPKSFGYSSVVCVCNATYCDSFDPPTFPALGTFSRYESTRSGRRMELSMGPIQANHTGTGLLLTLQPEQKFQKVKGFGGAMTDAAALNILALSPPAQNLLLKSYFSEEGIGYNIIRVPMASCDFSIRTYTYADTPDDFQLHNFSLPEEDTKLKIPLIHRALQLAQRPVSLLASPWTSPTWLKTNGAVNGKGSLKGQPGDIYHQTWARYFVKFLDAYAEHKLQFWAVTAENEPSAGLLSGYPFQCLGFTPEHQRDFIARDLGPTLANSTHHNVRLLMLDDQRLLLPHWAKVVLTDPEAAKYVHGIAVHWYLDFLAPAKATLGETHRLFPNTMLFASEACVGSKFWEQSVRLGSWDRGMQYSHSIITNLLYHVVGWTDWNLALNPEGGPNWVRNFVESPIIVDITKDTFYKQPMFYHLGHFSKFIPEGSQRVGLVASQKNDLDAVALMHPDGSAVVVVLNRSSKDVPLTIKDPAVGFLETISPGYSIHTYLWRRQ
As for B1, the “Pearson Indices for co-localization to the lysosome, in words” value in data set [1] (DSPIIV variants, FIG. 10B) is recorded as “did not alter the co-localization compared to WT”. Further, the “localization of GCase DSPIIV variants to the lysosome (Lamp1 / LIMP-2 co-localization), in words” value in data set [1] is on record as “targeted to the lysosomes”; in data set [1] (listed as E399), “did not alter the cellular localization or secretion of GCase”; in data set [1] (listed as ESPIIV), “co-localization of GCase (FITC) with either Lamp 1 (Red) or LIMP-2”. Moreover, in data set [2] (cell lysates, FIG. 11C), the “GCase activity in cell lysates, in words” value is recorded as “equal intracellular activities”. Further, the “GCase activity in the media / secretion, in words” value in data set [2] (media, FIG. 11A, 11B) is on record as “no media activity above background”; in data set [2] (media, FIG. 11A, 11B, listed as E399), “did not alter the cellular localization or secretion of GCase”; in data set [2] (media, FIG. 11A, 11B, listed as ESPIIV) it was “did not alter secretion”. Also, the “CRIM specific activity, in words” value in data set [3] (FIG. 11B right panel) is on record as “minor change in CRIM specific activity”. Also, the “% Secreted” value in data set [4] is recorded as about 0%.

B2: AKA: human GCase with TKD (407-409) replaced by AKA (protein, listed as Homo sapiens)
chain: ARPCIPKSFGYSSVVCVCNATYCDSFDPPTFPALGTFSRYESTRSGRRMELSMGPIQANHTGTGLLLTLQPEQKFQKVKGFGGAMTDAAALNILALSPPAQNLLLKSYFSEEGIGYNIIRVPMASCDFSIRTYTYADTPDDFQLHNFSLPEEDTKLKIPLIHRALQLAQRPVSLLASPWTSPTWLKTNGAVNGKGSLKGQPGDIYHQTWARYFVKFLDAYAEHKLQFWAVTAENEPSAGLLSGYPFQCLGFTPEHQRDFIARDLGPTLANSTHHNVRLLMLDDQRLLLPHWAKVVLTDPEAAKYVHGIAVHWYLDFLAPAKATLGETHRLFPNTMLFASEACVGSKFWEQSVRLGSWDRGMQYSHSIITNLLYHVVGWTDWNLALNPEGGPNWVRNFVDSPIIVDIAKATFYKQPMFYHLGHFSKFIPEGSQRVGLVASQKNDLDAVALMHPDGSAVVVVLNRSSKDVPLTIKDPAVGFLETISPGYSIHTYLWRRQ
For the molecule B2, in data set [5] (GCase on beads vs wash, FIG. 6C), the “binding of GCase variant to ldLIMP2” value is recorded as “about 50%”. Further, the “binding of GCase variant to ldLIMP2, in words” value in data set [5] is listed as “much less bound”. In data set [1] (FIG. 5), the “lysosomal localization of GCases with alanine substitutions in the TKD sequence, in words” value is on record as “less lysosomal localization”. Besides, in data set [1] (calnexin or calreticulin), the “co-localization to / retention in the ER/Golgi, in words” value is “majority of the enzymes co-localized to the ER/Golgi”. Moreover, the “CRIM specific activity relative to WT (assigned 100%)” value in data set [3] amounted to 49%.

B3: TAD: human GCase with TKD (407-409) replaced by TAD (protein)
chain: ARPCIPKSFGYSSVVCVCNATYCDSFDPPTFPALGTFSRYESTRSGRRMELSMGPIQANHTGTGLLLTLQPEQKFQKVKGFGGAMTDAAALNILALSPPAQNLLLKSYFSEEGIGYNIIRVPMASCDFSIRTYTYADTPDDFQLHNFSLPEEDTKLKIPLIHRALQLAQRPVSLLASPWTSPTWLKTNGAVNGKGSLKGQPGDIYHQTWARYFVKFLDAYAEHKLQFWAVTAENEPSAGLLSGYPFQCLGFTPEHQRDFIARDLGPTLANSTHHNVRLLMLDDQRLLLPHWAKVVLTDPEAAKYVHGIAVHWYLDFLAPAKATLGETHRLFPNTMLFASEACVGSKFWEQSVRLGSWDRGMQYSHSIITNLLYHVVGWTDWNLALNPEGGPNWVRNFVDSPIIVDITADTFYKQPMFYHLGHFSKFIPEGSQRVGLVASQKNDLDAVALMHPDGSAVVVVLNRSSKDVPLTIKDPAVGFLETISPGYSIHTYLWRRQ
In the case of B3, in data set [5], the “binding of GCase variant to ldLIMP2, in words” value is on record as “bound similarly”. For the same molecule, in data set [2] (media, transient transfection, FIG. 11A, 11B), the “increase of GCase activity in the media compared to WT” value is on record as about 8 fold. The “CRIM specific activity relative to WT (assigned 100%)” value in data set [3] amounted to 32%.

Values taken from patent US9738880B2, “Lysosomal protein targeting sequence and therapeutic applications of same” (Children's Hospital Medical Center, priority 2013, dated 2017).
